{"source": "paper doi:10.1101/2020.04.03.022855", "about": "(bioRxiv, 2020)", "proteins": {"B1": {"name": "Seventeen kilodalton protein (Skp), unlabelled (natural protein, Escherichia coli, UniProt P0AEU7 21-161, looked up)", "chain": "ADKIAIVNMGSLFQQVAQKTGVSNTLENEFKGRASELQRMETDLQAKMKKLQSMKAGSDRTKLEKDVMAQRQTFAQKAQAFEQDRARRSNEERGKLVTRIQTAVKSVANSQDIDLVVDANAVAYNSSDVKDITADVLKQVK"}}, "target": "the molecule itself", "experiment": "cross-linking"}
{"protein": "B1", "values": [{"measurement": "stoichiometry N", "result": 3}]}
